Key:
Format in all cases: biochemical
Details in all cases: glycoproteins at 10 mg/ml
β4Gal-T2 = target: T1, β4Gal-T2 (Homo sapiens, UniProt O60909); test: β4Gal-T2 galactosyltransferase activity assay (soluble enzyme, media of infected Sf9 cells)
T1 construct: An expression construct designed to encode amino acid residues 31-372 of β4Gal-T2 was prepared by RT-PCR; secretion signal of vector pAcGP67 (gp67 leader; own knowledge of the vector) (N); made in house; host or cells: Sf9 (Spodoptera frugiperda) cells, baculovirus; unpurified culture supernatant
T1 sequence (O60909 31-372): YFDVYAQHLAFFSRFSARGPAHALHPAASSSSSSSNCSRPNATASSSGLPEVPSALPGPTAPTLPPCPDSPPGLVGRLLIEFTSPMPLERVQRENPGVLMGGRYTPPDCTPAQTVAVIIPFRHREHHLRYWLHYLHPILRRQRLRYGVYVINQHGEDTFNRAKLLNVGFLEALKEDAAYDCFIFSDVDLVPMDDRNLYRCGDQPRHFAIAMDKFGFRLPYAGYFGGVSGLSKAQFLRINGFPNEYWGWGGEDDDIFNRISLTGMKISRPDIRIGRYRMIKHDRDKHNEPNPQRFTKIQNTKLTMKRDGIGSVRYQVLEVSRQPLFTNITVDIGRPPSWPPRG
Text: (§1) The PCR product were cloned into the BamHI site of pAcGP67 (Pharmingen), and the construct sequenced to verify correct insertion and sequence. The plasmid pAcGP67-β4Gal-T2-sol was co-transfected with Baculo-Goldä DNA (Pharmingen) as described previously (Bennett et al., 1996). Recombinant Baculo-virus were obtained after two successive amplifications in Sf9 cells grown in serum-containing medium, and titres of virus were estimated by titration in 24-well plates with monitoring of enzyme activities. Controls included pAcGP67-β4Gal-T3-sol (Almeida et al., 1997) and pAcGP67-GalNAc-T3-sol (Bennett et al., 1996).
(§2) Standard assays were performed in […] total reaction mixtures containing 25 mM Tris (pH 7.5), 10 mM MnCl2, 0.25% Triton X-100, […] UDP-[^14C]-Gal (2,300 cpm/nmol) (Amersham), and varying concentration of acceptor substrates (Sigma) (see Table I for structures). The soluble constructs were assayed with […] of culture supernatant from infected cells, whereas the full length construct was assayed with 1% Triton X-100 homogenates of washed cells. Bovine milk P1,4Gal-transferase (Sigma) was used as control.
Reaction products were quantified by Dowex-1 chromatography. […] The transfer of Gal was evaluated after precipitation by filtration through Whatman GF/C glass fiber filters.

β4Gal-T3 = target: T2, β4Gal-T3 (Homo sapiens, UniProt O60512); test: β4Gal-T3 galactosyltransferase activity assay (soluble enzyme, Sf9 media)
T2 construct: media from Sf9 cells expressing secreted forms of either β4Gal-T2 or -T3 were used as enzyme sources; secretion signal of vector pAcGP67 (gp67 leader; own knowledge of the vector) (N); made in house; host or cells: Sf9 cells, baculovirus; unpurified culture supernatant
T2 sequence (O60512 32-393 limits assumed): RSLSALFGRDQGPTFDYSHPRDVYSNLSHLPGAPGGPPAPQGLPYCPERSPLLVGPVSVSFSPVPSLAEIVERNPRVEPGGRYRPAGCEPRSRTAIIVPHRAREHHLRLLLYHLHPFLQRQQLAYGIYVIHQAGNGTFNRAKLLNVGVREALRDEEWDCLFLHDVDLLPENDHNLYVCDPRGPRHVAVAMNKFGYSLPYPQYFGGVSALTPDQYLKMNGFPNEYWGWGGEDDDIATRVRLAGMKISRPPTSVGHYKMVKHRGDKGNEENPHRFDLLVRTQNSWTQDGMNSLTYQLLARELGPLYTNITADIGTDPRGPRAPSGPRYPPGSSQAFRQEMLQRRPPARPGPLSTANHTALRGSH
Experimental: as §1, with “An expression construct designed to encode amino acid residues 31-372 of β4Gal-T2 was prepared by RT-PCR with mRNA from Colo205 cell line, using the primer pair EBER100FOR (5′-[…]; SEQ ID NO: 9) and EBER114 (5′-[…]; SEQ ID NO: 10) with BamH1 restriction sites (FIG. 2). The PCR” for “The PCR”
as §2
(§3) Reaction products were quantified by Dowex-1 chromatography. Assays with hen egg Ovalbumin (Sigma), asialo-fetuin (Sigma), and asialo-agalacto-fetuin (Sigma, treated with bgalactosidase) were performed with the standard reaction mixture modified to contain […] UDP-Gal, 54 mM NaCl, and 0.5 mg Ovalbumin. The transfer of Gal was evaluated after precipitation by filtration through Whatman GF/C glass fiber filters.

Bovine milk β4Gal-T = target: T3, Bovine milk β4Gal-T (Bos taurus, UniProt P08037); test: Bovine milk β4Gal-transferase activity assay (control enzyme)
T3 construct: Purified bovine milk enzyme; purchased Sigma; host or cells: bovine milk
T3 sequence (P08037 79-402 limits assumed): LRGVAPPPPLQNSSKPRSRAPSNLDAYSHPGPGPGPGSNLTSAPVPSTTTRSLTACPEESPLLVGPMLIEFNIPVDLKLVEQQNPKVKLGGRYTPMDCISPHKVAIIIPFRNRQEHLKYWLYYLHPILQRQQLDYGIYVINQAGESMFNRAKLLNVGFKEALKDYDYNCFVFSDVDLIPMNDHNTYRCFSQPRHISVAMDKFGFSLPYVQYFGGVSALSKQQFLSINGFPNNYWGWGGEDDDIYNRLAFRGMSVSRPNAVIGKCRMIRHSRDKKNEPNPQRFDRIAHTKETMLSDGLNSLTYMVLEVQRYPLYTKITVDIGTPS
Experimental: as §2, §3

B1: Hen egg albumin: glycoprotein acceptor, hen egg Ovalbumin (Sigma) (protein, UniProt P01012 2-386, looked up)
Ovalbumin: GSIGAASMEFCFDVFKELKVHHANENIFYCPIAIMSALAMVYLGAKDSTRTQINKVVRFDKLPGFGDSIEAQCGTSVNVHSSLRDILNQITKPNDVYSFSLASRLYAEERYPILPEYLQCVKELYRGGLEPINFQTAADQARELINSWVESQTNGIIRNVLQPSSVDSQTAMVLVNAIVFKGLWEKAFKDEDTQAMPFRVTEQESKPVQMMYQIGLFRVASMASEKMKILELPFASGTMSMLVLLPDEVSGLEQLESIINFEKLTEWTSSNVMEERKIKVYLPRMKMEEKYNLTSVLMAMGITDVFSSSANLSGISSAESLKISQAVHAAHAEINEAGREVVGSAEAGVDAASVSEEFRADHPFLFCIKHIATNAVLFFGRCVSP
β4Gal-T2 activity with acceptor substrate (β4Gal-T2): 2.0 nmol/min/mL | β4Gal-T3 activity with acceptor substrate (β4Gal-T3): 1.0 nmol/min/mL | Bovine milk β4Gal-T activity with acceptor substrate (Bovine milk β4Gal-T): 0.7 nmol/min/µg

Source: US7374919B2 (GlycoZym ApS, priority 1998, dated 2008)
